Data from US20090317401A1.

Experiments:
Assay in all cases: cell-based or functional assay
[1] = molecular target: CD16 receptor on PB-NK cells (human) (UniProt P08637)
[2] = molecular target: human CD160 receptor (human) (UniProt O95971)
[3] = molecular target: HLA-C expressed on K562class I+ cells (human) (UniProt P10321)
UniProt P10321, sequence (P10321 25-366): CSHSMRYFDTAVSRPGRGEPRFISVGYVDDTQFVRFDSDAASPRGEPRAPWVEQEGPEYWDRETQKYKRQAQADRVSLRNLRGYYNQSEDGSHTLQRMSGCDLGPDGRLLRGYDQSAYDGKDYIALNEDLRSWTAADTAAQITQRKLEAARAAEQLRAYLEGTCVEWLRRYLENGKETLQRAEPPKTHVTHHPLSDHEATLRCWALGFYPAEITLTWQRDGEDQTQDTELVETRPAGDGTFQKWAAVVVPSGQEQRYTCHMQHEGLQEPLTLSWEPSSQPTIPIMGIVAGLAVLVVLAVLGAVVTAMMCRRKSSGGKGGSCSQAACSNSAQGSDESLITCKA

UniProt O95971, sequence (O95971 25-159): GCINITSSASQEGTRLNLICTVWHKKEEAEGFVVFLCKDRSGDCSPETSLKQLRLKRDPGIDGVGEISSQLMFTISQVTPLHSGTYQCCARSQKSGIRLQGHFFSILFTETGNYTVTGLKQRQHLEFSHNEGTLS
UniProt P08637, sequence (P08637 17-254): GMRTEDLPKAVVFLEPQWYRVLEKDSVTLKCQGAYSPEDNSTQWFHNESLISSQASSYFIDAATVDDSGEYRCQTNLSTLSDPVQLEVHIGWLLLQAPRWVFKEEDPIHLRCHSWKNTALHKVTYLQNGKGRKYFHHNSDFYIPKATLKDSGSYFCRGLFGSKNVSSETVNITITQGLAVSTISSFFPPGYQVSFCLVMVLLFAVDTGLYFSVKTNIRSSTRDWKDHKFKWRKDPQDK

Substance: 3G8 anti-CD16 mAb (IgG1; Beckman-Coulter) (antibody)
- IFN-γ production by PB-NK after mAb cross-linking of CD16, against CD160 engagement [1]: 30 fold less

Substance: HLA-C expressed on K562class I+ cells (from UniProt P10321 25-366) (ligand)
- IFN-γ production by PB-NK co-cultured 16 h with K562Class-I+ (Cytometric Bead Array) [2]: 29400 pg/mL
- IFN-γ production by PB-NK co-cultured with K562Class-I+ in the presence of IgG1 isotype control [2]: 23100 pg/mL
- IFN-γ production by PB-NK co-cultured with K562Class-I+ in the presence of IgG2a isotype control [2]: 16100 pg/mL
- IL-6 production by PB-NK co-cultured 16 h with K562Class-I+ (Cytometric Bead Array) [2]: 620 pg/mL
- IL-6 production by PB-NK co-cultured with K562Class-I+ in the presence of IgG1 isotype control [2]: 414 pg/mL
- IL-6 production by PB-NK co-cultured with K562Class-I+ in the presence of IgG2a isotype control [2]: 478 pg/mL
- TNF-α production by PB-NK co-cultured 16 h with K562Class-I+ (Cytometric Bead Array) [2]: 334 pg/mL
- TNF-α production by PB-NK co-cultured with K562Class-I+ in the presence of IgG1 isotype control [2]: 200 pg/mL
- TNF-α production by PB-NK co-cultured with K562Class-I+ in the presence of IgG2a isotype control [2]: 215 pg/mL

Substance: HLA-Cw5 on K562-HLA-Cw5 transfectants (ligand)
- IFN-γ production by PB-NK co-cultured 16 h with K562-Cw5 (Cytometric Bead Array) [2]: 20100 pg/mL
- IL-6 production by PB-NK co-cultured 16 h with K562-Cw5 (Cytometric Bead Array) [2]: 689 pg/mL
- TNF-α production by PB-NK co-cultured 16 h with K562-Cw5 (Cytometric Bead Array) [2]: 389 pg/mL

Substance: W6/32 anti-HLA mAb (IgG2a; ATCC HB-95) (antibody)
- IFN-γ production by PB-NK co-cultured with K562Class-I+ in the presence of blocking anti-HLA-C mAb [3]: 1150 pg/mL
- IL-6 production by PB-NK co-cultured with K562Class-I+ in the presence of blocking anti-HLA-C mAb [3]: 370 pg/mL
- TNF-α production by PB-NK co-cultured with K562Class-I+ in the presence of blocking anti-HLA-C mAb [3]: 64 pg/mL
